Measured values published in the RNAGym collection of RNA variant scans (doi:10.7554/elife.80360).

B1: HDV Ribozyme (parent)
chain: GGCCGGCAUGGUCCCAGCCUCCUCGCUGGCGCCGGCUGGGCAACAUUCCGAGGGGACCGUCCCCUCGGUAAUGGCGAAUGGGACCCA

Variants of: B1
Test: self-cleavage, relative activity (ratio to wild type); higher = more cleavage; co-transcriptional

Variant | self-cleavage
C41U U69A | 1.08
U9G G59U | 1.06
C13G G17U | 0.0426
G38U | 0.255
A43U G53A | 0.407
A16G G40A | 1.13
G28A C61U | 0.0631
C21G U23G | 0.0755
C44U U79C | 0.269
A8U U79C | 0.177
C18A C44G | 0.193
G25C A78C | 0.0773
G80U G82U | 0.147
U20G C21G | 0
G10U C44U | 0.459
A42C A87G | 0.219
C4U G55U | 0.639
A70U U79C | 0.277
C49U G54U | 0.87
C63U U72C | 0.751
G68A A77U | 0.394
C15U G53U | 0.767
G55U A56G | 0.912
U46G G81A | 0.222

Variant | self-cleavage
A45U C58U | 0.849
C3A G38C | 0
C58U C63A | 0.986
C13A C33U | 0.369
G10U C15A | 0.222
A56G G76A | 0.96
C32U G35A | 0.326
G67C G81C | 0.286
U47A | 0.958
G17U C22U | 0.0959
C7A C57A | 0.597
C4U A42G | 0.138
C22U C58G | 0.511
A16G G68A | 0.928
C62G C63G | 0.706
C30A G54C | 0.519
G55A G80A | 0.369
C33A G74A | 0.0219
G6A A56C | 0.571
U65C G76A | 0.918
C14U G17C | 0.156
C4G A45U | 0.161
C44U A83G | 0.48
G28A U60C | 0.0811

Variant | self-cleavage
G74A G80U | 0.124
U46A C48G | 0.802
C75A G81A | 0.151
C36U G73C | 0.161
U12A G82U | 0.161
C26A A56G | 0.957
G35A G74A | 0.157
A45C C85A | 0.437
C15A G55U | 0.608
U12A C24U | 0.135
C33U G81C | 0.119
C26G C41A | 1.04
G80A C86U | 0.409
A8G C61U | 0.982
C18A G34C | 0.136
U9A C58A | 0.789
U23A C33G | 0.35
C22U A51U | 0.708
G28U C57A | 0.102
C57G U65A | 1.11
C13U C44G | 0.332
C61A A83U | 0.47
C13A U60C | 0.0573
G73C C84A | 0.277

Variant | self-cleavage
G1C G40A | 0.111
G6C G28U | 0
C32U A45G | 0.755
A42G A43C | 0.158
C36A A87C | 0.147
A16U G29A | 0.0378
C15U U65C | 0.674
C3U G17A | 0.361
U9G G74U | 0.415
C4G G10A | 0.105
C18U C86U | 0.886
A51G C86A | 1.16
G35A A71C | 0.125
A16U C63G | 0.831
U46A G68U | 0.657
G11U C30A | 0.128
G11C G82C | 0.287
G35A C57U | 0.686
U27G G28U | 0.612
G25A G31A | 0.0773
U47C A71C | 0.883
A70C C75G | 0.0615
G11C C15U | 0.0554
G2C C41G | 0.103

Variant | self-cleavage
C64G G80U | 0.443
G31U A45U | 0.175
A42G C49G | 0.358
G40U U79A | 0.262
G40C G53A | 0.332
G11U C62A | 0.487
C63G G68A | 0.366
G29U C49G | 0.133
G2U U37C | 0.0801
C13A G29A | 0.0268
A8U G38C | 0.095
A8G U69G | 1.19
C32G A56C | 0.0739
G39A A51G | 0.458
C3A G34U | 0.109
G31A G81C | 0.179
C15G U27A | 0.431
C64A A78U | 0.285
G2U G59U | 0.128
G34C A83C | 0.0898
C22A G54C | 0.281
G25U C49A | 0.175
C13U C64A | 0.807
C41G G74U | 0.47

Variant | self-cleavage
G74C C86A | 0.201
U12G C19G | 0
G67C A71C | 0.657
G59C A71G | 0.831
C41U C66A | 0.719
U20G G38C | 0.0489
G53C C86G | 0.903
G10C C58G | 0.917
A56C G67U | 0.814
G59C A71C | 0.677
A43C C58G | 0.443
C3A | 0.641
U69C U79G | 1.16
U9G U12G | 1.11
A43C C75A | 0.298
C22A G28U | 0.106
G28C G52C | 0.229
C33U A71C | 0.374
U12G U47G | 1.21
G25A G74C | 0.163
C7A G53C | 0.38
G11C A83U | 0.119
C3G U79C | 0.182
C32G A78U | 0.0811

Variant | self-cleavage
C24G U60G | 0.0755
C19A A45U | 0.199
A56U A78G | 0.684
A8C C84A | 0.751
C19U C36A | 0.0639
C14U C63A | 0.957
C18A G31U | 0.141
C32U U65G | 0.956
A43G A70U | 0.743
G25A C41A | 0.212
G29U U79C | 0.122
A71U G82C | 0.135
C13U C62A | 0.489
U20A G74U | 0.0437
C41U U60G | 1.1
A77G A83U | 0.635
A78G C86A | 0.727
A16C G38A | 0.0504
A8U C30A | 0.299
C41U G81U | 0.205
C75A U79C | 0.0707
C49A A77U | 0.404
C15A G39C | 0.107
G31C A56C | 0.325

Variant | self-cleavage
G6U U47A | 0.482
C3A G35U | 1.14
A8G C63A | 1.22
G55C A77U | 0.65
G1U A45C | 0.453
C19A U37G | 0.151
C48G G59U | 1.07
G11A G80A | 0.197
A8G C63G | 1.11
A16U G54C | 0.955
A56G C64A | 0.764
C7A C41A | 0.342
G11A C18G | 0.041
C44A G50U | 0.594
G31U G73A | 0.0627
G28U U65C | 0.0707
A8C G82A | 0.172
C22G G52C | 0.0652
U20A G55U | 0.0302
G67A G80A | 0.41
G40C C85A | 0.128
G52U U72G | 0.396
U27A G28A | 0.0811
G6A U20A | 0.0536

Variant | self-cleavage
C19G G35C | 0.208
G2A C75A | 0.0542
C58U U69G | 0.965
C44G A45U | 0.776
A16G A56C | 0.862
C13A U27A | 0.831
U12A C58U | 0.302
G40A C63U | 0.895
C21U G28A | 0.0791
G39U U47G | 0.323
C14G G67C | 0.554
C19G C36G | 0.0264
C49A U79C | 0.61
C44G A83C | 0.284
C3G C85U | 0.751
C24G G55C | 0.0656
G25C G39C | 0
G17U C49G | 0.356
U79G C86U | 0.739
C57U U65C | 0.895
C7U C63G | 0.569
U37A G55C | 0.299
C32A C66G | 0.213
U72C G80U | 0.0791

Variant | self-cleavage
U9G G11C | 0.594
A42C A71U | 0.166
C33U U79C | 0.325
G2C G80U | 0.0392
G2U A83C | 0.0594
C22U U47A | 0.584
G29U C36U | 0.187
C58A G73U | 0.383
U60A A71C | 0.73
C64G C85G | 0.872
G38U U46C | 0.135
C15G G81C | 0.375
C18A C63U | 0.145
U9G G34C | 0.175
C7A G82C | 0.0811
U20G G74A | 0.0923
C3A C26G | 0.415
C13U C44A | 0.18
C26A C63A | 0.724
U37A U79G | 0
G1A G68C | 0.0978
G5A C24U | 0
U23G C86A | 0.607
G6C G50A | 0.225

Variant | self-cleavage
C24G G50U | 0.149
A77U A87U | 0.785
G39A C48U | 0.504
U12G A78G | 0.612
A83G C84A | 1.02
G53U A78C | 0.229
G40A G67A | 1.12
A42C U60C | 0.35
U60G G76A | 1.08
U23A G38U | 0.208
C57U G80A | 0.148
C48U A87C | 0.989
G52U A87G | 0.906
C24U G40C | 0.138
U27G G40C | 0.0639
G11C A77G | 0.138
C33A A51G | 0.289
G38A C41A | 0.185
G25C G50C | 0.156
U23A G39A | 0.408
G40A G53C | 1.01
G1U U27G | 0.522
A43U A87C | 0.314
C18U U46C | 0.374

Variant | self-cleavage
C13G C26U | 0.208
U23C A70G | 0.95
G31C G34A | 0.0963
G40A C58A | 0.906
C7G C75A | 0
A51U G68C | 0.554
G59U U72C | 0.599
G82A A87C | 0.583
G31A G53U | 0.346
C32U G50C | 0.764
C36A G38A | 0.0845
G53U C63U | 0.895
C61G C63A | 0.718
G1U C58U | 0.401
A16U C21A | 0.185
U27C G76A | 0.869
C3G C84G | 0.41
C30A G55C | 0.653
U47A G67A | 0.897
C22A G31A | 0.128
C58U G73A | 0.7
A56C U69A | 0.776
G81C C86A | 0.554
G40A A56C | 0.878

Variant | self-cleavage
U9G G39U | 0.807
A43U A45G | 0.57
G17U G29C | 0.0773
C19G C58U | 0.0272
U47C G81U | 0.443
U37C C58G | 0.872
G2C G31C | 0.0237
U12G C24A | 0.65
A71C A87G | 0.993
U27A G50U | 0.99
C4U C22G | 0.111
C13U G82U | 0.359
U37G C58G | 0.369
G5A G54C | 0.225
C15G C30A | 0.147
U27G C44A | 0.475
G5A C61U | 0.0326
G10A C58G | 0.939
C3U C22A | 0.161
G53A A70G | 1.07
C14A G67A | 0.435
C32U C41U | 0.629
G17C C85A | 0.388
C36A C85A | 0.457

Variant | self-cleavage
C66A G68C | 0.453
U23G A83G | 0.237
C7G A16U | 0.0692
G2C A87U | 0.0825
C7A C85A | 0.453
A70G A83U | 0.511
A8C C13A | 0.266
G1C G73A | 0.201
G11A U20C | 0
C21A G68A | 0.0779
G80A C84U | 0.197
C24U C61A | 0.591
C15U C84A | 0.81
G10U A43G | 0.0604
C30A C49U | 0.615
A43U G80A | 0.0237
C26A G34U | 0.683
U20G G28A | 0.0536
A45U C57U | 0.712
G10C U27A | 0.939
G29U U37C | 0.208
G11C C85U | 0.266
